The record followed here is paper PMC12618784.

Test [1] has as its target T1, Porin, Q94920.
T1 chain: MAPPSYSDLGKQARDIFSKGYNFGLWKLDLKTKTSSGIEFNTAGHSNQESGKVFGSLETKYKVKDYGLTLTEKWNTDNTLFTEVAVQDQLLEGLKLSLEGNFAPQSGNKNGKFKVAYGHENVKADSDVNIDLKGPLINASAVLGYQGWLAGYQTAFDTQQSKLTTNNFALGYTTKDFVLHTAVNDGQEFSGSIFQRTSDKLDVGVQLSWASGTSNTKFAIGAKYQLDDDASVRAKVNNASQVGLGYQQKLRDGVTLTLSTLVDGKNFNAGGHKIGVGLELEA
Description: pull-down (anti-HA immunoprecipitation) with mass spectrometry. Conditions: chain shown with the change; 3rd instar larval muscle tissue (mef2-Gal4); four individual biological replicates; read off a plot.

The target in a further test is T2, Mitofilin, P91928.
T2 chain: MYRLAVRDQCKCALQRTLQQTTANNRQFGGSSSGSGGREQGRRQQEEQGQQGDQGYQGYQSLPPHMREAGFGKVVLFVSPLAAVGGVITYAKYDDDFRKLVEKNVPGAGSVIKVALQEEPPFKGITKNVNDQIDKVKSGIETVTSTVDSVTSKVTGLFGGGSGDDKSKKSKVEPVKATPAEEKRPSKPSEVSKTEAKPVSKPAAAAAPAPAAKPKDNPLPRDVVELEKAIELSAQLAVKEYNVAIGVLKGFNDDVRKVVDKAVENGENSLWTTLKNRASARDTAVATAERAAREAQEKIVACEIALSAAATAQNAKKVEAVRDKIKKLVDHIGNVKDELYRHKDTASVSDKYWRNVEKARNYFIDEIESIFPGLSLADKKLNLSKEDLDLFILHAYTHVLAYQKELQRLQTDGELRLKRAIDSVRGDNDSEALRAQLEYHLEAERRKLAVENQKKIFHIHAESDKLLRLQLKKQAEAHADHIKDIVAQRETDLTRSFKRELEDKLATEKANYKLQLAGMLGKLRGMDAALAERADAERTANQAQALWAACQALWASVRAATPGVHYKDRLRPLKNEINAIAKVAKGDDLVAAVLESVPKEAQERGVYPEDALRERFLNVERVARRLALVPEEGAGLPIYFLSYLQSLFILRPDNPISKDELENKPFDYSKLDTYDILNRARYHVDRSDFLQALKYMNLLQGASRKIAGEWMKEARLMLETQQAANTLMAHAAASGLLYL
Description: TurboID biotin proximity labelling with mass spectrometry. To be noted: chain shown with the change; 3rd instar larval muscle tissue (mef2-Gal4); parent: 1.

The target in test [2] is T1, Porin, Q94920. The description is as above. To be noted: chain shown with the change; 3rd instar larval muscle tissue (mef2-Gal4); parent: 1.
Another test deals with SERCA, P22700. Described as above. Conditions: chain shown with the change; 3rd instar larval muscle tissue (mef2-Gal4); parent: 1.
The target in test [3] is T3, Sphingosine-1-phosphatase lyase (Sply), Q9V7Y2.
T3 chain: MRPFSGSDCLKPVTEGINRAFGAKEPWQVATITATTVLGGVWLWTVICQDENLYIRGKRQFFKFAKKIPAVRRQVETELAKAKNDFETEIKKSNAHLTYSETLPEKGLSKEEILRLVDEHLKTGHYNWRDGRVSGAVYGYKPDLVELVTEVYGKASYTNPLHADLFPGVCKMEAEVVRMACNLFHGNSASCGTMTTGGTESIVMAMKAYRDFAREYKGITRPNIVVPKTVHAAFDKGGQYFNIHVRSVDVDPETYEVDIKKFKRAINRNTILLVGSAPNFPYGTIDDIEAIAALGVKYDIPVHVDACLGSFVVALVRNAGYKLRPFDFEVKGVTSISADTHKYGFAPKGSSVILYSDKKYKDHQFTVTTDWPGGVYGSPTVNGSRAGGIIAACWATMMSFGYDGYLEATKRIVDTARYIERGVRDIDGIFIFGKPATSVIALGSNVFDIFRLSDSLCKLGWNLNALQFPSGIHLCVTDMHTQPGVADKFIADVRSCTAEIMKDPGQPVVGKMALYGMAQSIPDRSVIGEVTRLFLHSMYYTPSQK
Described as above. To be noted: chain shown with the change; 3rd instar larval muscle tissue (mef2-Gal4); parent: 1.

The next test addresses T4, Porin::HA, Q94920.
T4 chain: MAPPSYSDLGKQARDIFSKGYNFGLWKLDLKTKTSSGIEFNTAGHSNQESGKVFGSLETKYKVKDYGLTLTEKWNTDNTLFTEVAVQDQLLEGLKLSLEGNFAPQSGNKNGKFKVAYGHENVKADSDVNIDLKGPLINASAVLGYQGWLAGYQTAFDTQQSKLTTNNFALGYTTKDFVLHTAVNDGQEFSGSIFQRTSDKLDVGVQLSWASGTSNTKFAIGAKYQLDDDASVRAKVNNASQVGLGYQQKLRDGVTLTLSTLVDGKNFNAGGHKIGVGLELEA
The test can be described thus: co-immunoprecipitation (anti-GFP beads), quantified blot. Conditions: chain shown with the change; transfected Sf21 cells; values normalised to the corresponding amounts of precipitated Dmel\Tmem43; parent: est. 0.75; read off a plot.

Sequence of SERCA, P22700 (P22700 whole entry, the tested form may be a part): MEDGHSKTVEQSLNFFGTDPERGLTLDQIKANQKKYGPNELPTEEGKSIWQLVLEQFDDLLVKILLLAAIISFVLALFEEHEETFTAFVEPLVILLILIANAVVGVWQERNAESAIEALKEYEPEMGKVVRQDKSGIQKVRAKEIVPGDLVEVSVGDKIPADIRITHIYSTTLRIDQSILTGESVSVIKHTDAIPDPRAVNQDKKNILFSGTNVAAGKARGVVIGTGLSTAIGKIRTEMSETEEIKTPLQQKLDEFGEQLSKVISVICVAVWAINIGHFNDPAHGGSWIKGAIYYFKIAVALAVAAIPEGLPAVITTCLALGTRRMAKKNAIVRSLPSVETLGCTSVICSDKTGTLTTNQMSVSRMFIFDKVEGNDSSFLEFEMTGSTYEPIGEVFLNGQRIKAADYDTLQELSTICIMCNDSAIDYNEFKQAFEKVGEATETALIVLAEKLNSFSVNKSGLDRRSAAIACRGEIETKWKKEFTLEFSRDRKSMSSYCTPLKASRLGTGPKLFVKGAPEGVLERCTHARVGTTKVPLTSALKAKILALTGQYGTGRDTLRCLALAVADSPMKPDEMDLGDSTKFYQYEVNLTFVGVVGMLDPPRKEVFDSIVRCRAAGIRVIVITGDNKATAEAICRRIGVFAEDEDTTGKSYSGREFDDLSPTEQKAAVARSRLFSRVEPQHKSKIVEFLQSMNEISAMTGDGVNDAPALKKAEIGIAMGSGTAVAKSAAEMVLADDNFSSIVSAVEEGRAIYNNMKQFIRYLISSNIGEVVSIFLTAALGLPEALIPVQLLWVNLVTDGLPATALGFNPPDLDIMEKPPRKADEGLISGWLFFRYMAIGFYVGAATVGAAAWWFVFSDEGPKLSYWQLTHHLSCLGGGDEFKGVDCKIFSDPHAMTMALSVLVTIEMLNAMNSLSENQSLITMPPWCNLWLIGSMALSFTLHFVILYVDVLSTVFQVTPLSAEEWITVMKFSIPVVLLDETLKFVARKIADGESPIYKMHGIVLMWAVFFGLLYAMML

B1: Dmel\Tmem43wt::HA, Q9VSB9 p.S333L (protein)
chain: MASLSETLRSHWPIALFGVILFVAGGTELYWNEGRAVHNMMALDEAHADIYSVRFTEEEQEVGLEGRIVHLSGPILVGEPLTEPDYNIQLLAVKLRRRVQMYQWVEEAVEHNYGDSVGTTHSDSRTYYYTREWRDKIVDSRNFYNRHGHTNPSHFPIESHVQVADAVFIGRYELGAEVKEKFNNYQELTSDIRPEDSGVKLHLGIYYHTNDVFNPEVGDLRLLFSFAGMEGEVFSVVGKLSGNKLVPYITSRGVPVLLVYPGGLSVQEVFRLEARAQVLHTWWWRFVGWLLIFFGVTCNTKILRLLFVRVPLLVALAPDPQFPVTGNLLIAFLLALTIAAVAWILHRPVIGACLLLAGASPYVWFTRNLVDYHRLD
Regarding B1, the ratio to parent with Porin, Q94920 [1] worked out at 0.4.

B2: Dmel\Tmem43wt::TurboID, Q9VSB9 p.S333L (protein)
chain: MASLSETLRSHWPIALFGVILFVAGGTELYWNEGRAVHNMMALDEAHADIYSVRFTEEEQEVGLEGRIVHLSGPILVGEPLTEPDYNIQLLAVKLRRRVQMYQWVEEAVEHNYGDSVGTTHSDSRTYYYTREWRDKIVDSRNFYNRHGHTNPSHFPIESHVQVADAVFIGRYELGAEVKEKFNNYQELTSDIRPEDSGVKLHLGIYYHTNDVFNPEVGDLRLLFSFAGMEGEVFSVVGKLSGNKLVPYITSRGVPVLLVYPGGLSVQEVFRLEARAQVLHTWWWRFVGWLLIFFGVTCNTKILRLLFVRVPLLVALAPDPQFPVTGNLLIAFLLALTIAAVAWILHRPVIGACLLLAGASPYVWFTRNLVDYHRLD
Take B2: the ratio to parent with Mitofilin, P91928 came to 0.17; in the test with Porin, Q94920 [2] it was 0.13; with SERCA, P22700, 0.17; in test [3] it was 0.23.

B3: Dmel\Tmem43wt::GFP, Q9VSB9 p.S333L (protein)
chain: MASLSETLRSHWPIALFGVILFVAGGTELYWNEGRAVHNMMALDEAHADIYSVRFTEEEQEVGLEGRIVHLSGPILVGEPLTEPDYNIQLLAVKLRRRVQMYQWVEEAVEHNYGDSVGTTHSDSRTYYYTREWRDKIVDSRNFYNRHGHTNPSHFPIESHVQVADAVFIGRYELGAEVKEKFNNYQELTSDIRPEDSGVKLHLGIYYHTNDVFNPEVGDLRLLFSFAGMEGEVFSVVGKLSGNKLVPYITSRGVPVLLVYPGGLSVQEVFRLEARAQVLHTWWWRFVGWLLIFFGVTCNTKILRLLFVRVPLLVALAPDPQFPVTGNLLIAFLLALTIAAVAWILHRPVIGACLLLAGASPYVWFTRNLVDYHRLD
In the case of B3, the response with Porin::HA, Q94920 came to 0.05.
